Source: patent US20120244080A1 (GEORGIA STATE UNIVERSITY RESEARCH FOUNDATION, published 2012)
One block for each binder: values may come before it.

How the values were obtained:
[1] = target: T1, GLP-1 receptor (GLP-1R) on rat insulinoma RINm5F cells (rat (RINm5F rat insulinoma cells), UniProt P32301 22-463); assay: cell-based or functional assay
T1 sequence (looked up): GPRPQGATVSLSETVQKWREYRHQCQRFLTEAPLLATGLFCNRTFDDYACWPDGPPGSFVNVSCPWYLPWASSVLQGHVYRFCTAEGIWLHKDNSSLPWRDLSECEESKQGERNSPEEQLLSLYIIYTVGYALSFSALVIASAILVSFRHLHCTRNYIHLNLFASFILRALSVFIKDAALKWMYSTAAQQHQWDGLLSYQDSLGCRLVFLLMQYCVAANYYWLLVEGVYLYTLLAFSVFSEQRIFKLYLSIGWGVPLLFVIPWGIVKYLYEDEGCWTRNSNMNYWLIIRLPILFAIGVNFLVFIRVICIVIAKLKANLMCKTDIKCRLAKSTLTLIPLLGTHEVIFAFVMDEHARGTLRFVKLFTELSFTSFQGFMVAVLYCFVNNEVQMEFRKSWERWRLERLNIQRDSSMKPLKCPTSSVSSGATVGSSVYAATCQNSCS

[2] = target: T1, GLP-1 receptor (GLP-1R) on rat …; assay: immunofluorescence staining of RINm5F cells (GLP-1R expressing) after 30 min at 37 °C, detected with rabbit polyclonal anti-calbindin D9k
Procedure: The cells were extensively washed after 30 min treatments under 37° C. in microscopic chamber slides and subsequently fixed. […] The light shading represents antibody staining.
It is well known that GLP-1R is expressed in RINm5F but not in CHO cells. […] Similar binding analyses were carried out with RINm5F cells and a […] (αTC1).

intracellular cAMP level in rat insulinoma RINm5F cells (Lance cAMP 384 kit), IC50 [1]: ~20 nM
B1: Fusion Protein Cal.GLP (human Calbindin D9k-GLP-1 fusion protein) (designed binder)
chain: MSTKKSPEELKRIFEKYAAKEGDPDQLSKDELKLLIQAEFPSLLKGPNTLDDLFQELDKNGHAEGTFTSDVSSYLEGQAAKEFIAWLVKGRG

binding result [2]: no binding (tested: 50 µM)
B2: Human Calbindin D9k (other)
chain: STKKSPEELKRIFEKYAAKEGDPDQLSKDELKLLIQAEFPSLLKGPNTLDDLFQELDKNGDGEVSFEEFQVLVKKISQ
notes: Negative control and parental host protein
